Measurements as given in paper PMC8560915, “Nematode CDC-37 and DNJ-13 form complexes and can interact with HSP-90” (Scientific Reports, 2021).

B1: Labeled CDC-37 (*CDC-37) (natural protein, nematode, UniProt O02108 1-370, looked up)
chain: MPIDYSKWKDIEVSDDEDDTHPNIDTPSLFRWRHQARLERMAEKKMEQEKIDKEKGTTSKKMEELEKKLAAADVTDKSDIQKQIDEVKAQEEAWRKKEAELEEKERLEPWNVDTIGHEAFSTSRINKITEKKPQAPKTDEEDTHAMSTFFETHESLLEKMAVLKNGAKSTELFLAEHPHMASEYTANWLTIEALNAAIDFNEEKMKTMAEQCIIIQYLLELSKSLNAVATNTTVQKQFFKKFEAAEPVYMKHYQDEVKAFEDRLRTRAQTKRDAAMEEAEAEEKAERMKSAPGGIDPQEVFEQLPEEMRKCFEAHDIEALKGVAQKMDEEVFKYHFDRCIASGLWVPGKADDDDDDEEAAPAEEEPTTSS
modifications: ATTO 488 C5-maleimide at its cysteine residues
notes: CDC-37, kinase-specific Hsp90 cofactor of nematodes; same protein as m1, labeled at cysteines; The methods name ATTO 488 C5-maleimide, the results call the label AlexaFluor 488; also called fluorescently labeled CDC-37; AlexaFluor 488-labeled CDC-37
B2: CDC-37 (natural protein, nematode, UniProt O02108 1-370, looked up)
chain: B1 chain
notes: CDC-37, kinase-specific Hsp90 cofactor of nematodes; cDNA in pET28b after the N-terminal His6 tag; called full-length in the results; Cleavage of the His6 tag is not mentioned; also called full-length CDC-37; FL; source: E. coli BL21-CodonPlus(DE3)RIL, purified (HisTrap FF, ResourceS ion exchange, Superdex 75 SEC)
B3: DNJ-13 (natural protein)
chain: not shown
notes: DNJ-13, cytosolic Hsp40-like J domain protein of C. elegans; cDNA in pET28b after the N-terminal His6 tag; called full-length in the results; also called full-length DNJ-13; DNJ-13 dimer; source: E. coli BL21-CodonPlus(DE3)RIL, purified (HisTrap FF, ResourceS ion exchange, Superdex 75 SEC)

Experiments:
HSP-90 = target: T1, HSP-90 (nematode, UniProt Q18688 1-702); assay: AUC; sedimentation velocity with fluorescence detection; 300 nM *CDC-37 with or without 2 µM binding partners; 42,000 rpm, 20 °C; 40 mM HEPES/KOH pH 7.5, 20 mM KCl, 1 mM DTT, 5 mM MgCl2; with and without ATPγS for HSP-90; conditions: both partners purified
T1 construct: HSP-90 of nematodes, the chaperone for which CDC-37 acts as co-chaperone; the construct is not described

DNJ-13 = target: B3; assay: AUC; sedimentation velocity with UV/Vis absorbance, non-labeled proteins, 0.5 mg/ml protein; 10 µM DNJ-13 with substoichiometric, equal or excess CDC-37; 2DSA analysis in UltraScan III; conditions: both partners purified
Sequence of DNJ-13 (Q20774 entry or part of it): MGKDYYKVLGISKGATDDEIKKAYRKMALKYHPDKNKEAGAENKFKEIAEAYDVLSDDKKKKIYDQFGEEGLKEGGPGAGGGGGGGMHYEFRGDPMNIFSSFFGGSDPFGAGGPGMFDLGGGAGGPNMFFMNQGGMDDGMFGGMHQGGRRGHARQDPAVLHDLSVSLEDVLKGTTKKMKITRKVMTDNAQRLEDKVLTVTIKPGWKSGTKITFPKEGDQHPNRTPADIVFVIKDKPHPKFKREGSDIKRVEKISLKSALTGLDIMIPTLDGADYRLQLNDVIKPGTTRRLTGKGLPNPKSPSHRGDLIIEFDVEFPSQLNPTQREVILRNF

[1] = target: the molecule itself; assay: cross-linking; isotope labeled BS3-H12/D12 and DSSG-H6/D6; 16 µM DNJ-13 and 16 µM CDC-37; bands cut from SDS-PAGE, tryptic digest, nanoLC-ESI-MS/MS; crosslinks identified with xMASS and pLink2.0
Labeled CDC-37 (*CDC-37) = target: B1; assay: AUC; fluorescence AUC titration, 100 nM *CDC-37 with 0-10 µM DNJ-13; sedimentation coefficients against DNJ-13 concentration fitted with a Michaelis-Menten function; approximate KD; conditions: both partners purified

Binder: B1
binding result (HSP-90): binds

Binder: B2
stoichiometry N (DNJ-13): 1 CDC-37 per DNJ-13 dimer

Binder: B3
stoichiometry N [1]: 2
Kd (Labeled CDC-37 (*CDC-37)): ~3000 nM
